Experimental data reported in patent US20180086826A1.

Columns and labels:
[1] = target: meditope-enabled Trastuzumab Fab (original, Ile83); assay: SPR, 37 °C, immobilized memAb
[2] = target: meditope-enabled Trastuzumab Fab (original, Ile83); assay: SPR, 37 °C
[3] = target: I83E trastuzumab memAb Fab; assay: SPR, 37 °C
[4] = target: I83E trastuzumab memAb Fab; assay: SPR, 37 °C; against the original meditope on the original trastuzumab memAb Fab
[5] = target: meditope-enabled Trastuzumab Fab (original, Ile83); assay: as above
HER2 = HER2 (UniProt P04626); assay: SPR, immobilized HER2, 25 °C

| Substance | Kd [1] [nM] | τ1/2 [2] [s] | Kd [3] [nM] | koff [3] [s⁻¹] | τ1/2 [3] [s] | fold increase in affinity [4] [fold] | τ1/2 [1] [s] | fold increase in affinity [5] [fold] | Kd (HER2) [nM] |
| --- | --- | --- | --- | --- | --- | --- | --- | --- | --- |
| original meditope (peptide) | 1000 | 16 | 38 | 0.0025 | 280 | 25 | – | – | – |
| 5-diphenyl meditope (peptide) | 41 | – | 0.86 | – | 2400 | 1160 | 60 | 25 | – |
| I83E trastuzumab memAb Fab | – | – | – | – | – | – | – | – | 0.044 |
